Measured values reported in the supplement of paper PMC9732359.
± gives the uncertainty stated by the source.

Assay: protein stability index of a GFP-peptide fusion (yeast GPS) (PSI 1-4); higher = more stable; sorted into four equal gates, so the index is relative within each strain
Outline: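 Plasmids isolated from each sorting gate were PCR-amplified and Illumina-sequenced, and barcodes assigned the reads to strains. The gates, four of equal size, were set by GFP/Cherry fluorescence ratio on mid-log cultures in leucine-free medium. These cultures were yeast carrying a pooled library of tiled 17-residue yeast protein peptides fused downstream of GFP on a plasmid that also expresses Cherry. The protein stability index is the sum of every gate's read frequency times its gate number.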

Row | Sequence | protein stability index (doa10∆) | protein stability index (pdr5∆) | protein stability index (san1∆) | protein stability index (ubr1∆)
1 | YIKYNILLTSISRERDL [SRP68] | 1.69 ± 0.07 | 1.58 ± 0.062 | 1.83 ± 0.12 | 1.91 ± 0.094
2 | KSMASAFGVSVAFLDND [RPN7] | 3.04 ± 0.091 | 3.08 ± 0.093 | 3.01 ± 0.066 | 3.24 ± 0.062
3 | KVDSPDDPFMTKSGATT [GAL11] | 2.51 ± 0.077 | 2.63 ± 0.071 | 2.59 ± 0.055 | 2.79 ± 0.045
4 | PHQSPDATRVFVNGVWH [RPB2] | 2.84 ± 0.061 | 3.05 ± 0.056 | 2.98 ± 0.047 | 3.15 ± 0.045
5 | EILVLYNVCDTSKSLVK [SIN4] | 2.3 ± 0.05 | 2.88 ± 0.046 | 2.56 ± 0.058 | 2.97 ± 0.057
6 | ATALQTCAGGRLFNVVV [SMC2] | 2.63 ± 0.12 | 2.9 ± 0.13 | 3.13 ± 0.15 | 2.12 ± 0.15
7 | FIRVIGSELVQKYVGEG [RPT1] | 2.59 ± 0.21 | 2.57 ± 0.076 | 3 ± 0.083 | 2.84 ± 0.05
8 | MILNYNPSQGVSNSGAQ [UBP6] | 3.25 ± 0.096 | 3.37 ± 0.086 | 3.14 ± 0.064 | 3.25 ± 0.055
9 | AVEQRKKEKLDSGEVDA [DPB4] | 3.2 ± 0.23 | 3.21 ± 0.17 | 3.36 ± 0.1 | 3.27 ± 0.1
10 | QQPNPLQDLISVYGLDD [ROX3] | 1.95 ± 0.073 | 1.76 ± 0.061 | 2.02 ± 0.15 | 1.97 ± 0.084
11 | EILNECHDELKALPMLE [MED4] | 2.52 ± 0.11 | 2.95 ± 0.16 | 2.59 ± 0.083 | 3.09 ± 0.088
12 | LQKVENQTIKEAKDAII [YIL149C/MLP2] | 3.05 ± 0.046 | 3.18 ± 0.047 | 3.04 ± 0.045 | 3.13 ± 0.034
13 | ASTGSGKTLAFVIPILI [PRP28] | 1.47 ± 0.069 | 1.29 ± 0.079 | 1.48 ± 0.17 | 3.09 ± 0.1
